Measured values: patent US20190030120A1 (ACADEMIA SINICA, published 2019)

T1: Aurora A (UniProt O14965 1-403)
T1 construct: In the kinase assay it was present in 293T cell extracts, not purified; also called Aurora A kinase
T1 sequence (looked up): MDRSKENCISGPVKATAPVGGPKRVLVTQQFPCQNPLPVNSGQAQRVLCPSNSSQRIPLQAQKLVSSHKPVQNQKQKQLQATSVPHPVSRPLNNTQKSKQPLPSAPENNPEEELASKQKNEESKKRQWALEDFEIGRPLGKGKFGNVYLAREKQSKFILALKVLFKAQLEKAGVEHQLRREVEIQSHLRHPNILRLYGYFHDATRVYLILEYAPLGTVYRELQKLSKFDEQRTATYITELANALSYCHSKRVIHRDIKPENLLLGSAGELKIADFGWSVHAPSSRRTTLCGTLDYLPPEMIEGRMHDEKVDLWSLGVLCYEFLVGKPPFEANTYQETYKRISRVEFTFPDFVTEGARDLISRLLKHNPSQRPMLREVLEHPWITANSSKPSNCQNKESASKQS

T2: endogenous TIFA (U937 cells) (Homo sapiens, UniProt Q96CG3 1-184)
T2 construct: Endogenous protein of U937 cells
T2 sequence: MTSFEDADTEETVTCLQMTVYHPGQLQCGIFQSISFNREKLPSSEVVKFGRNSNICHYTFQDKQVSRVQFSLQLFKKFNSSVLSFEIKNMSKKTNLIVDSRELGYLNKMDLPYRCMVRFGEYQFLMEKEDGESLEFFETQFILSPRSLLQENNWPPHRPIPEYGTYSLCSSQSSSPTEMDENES


Tests used:
Aurora A = molecular target: T1, Aurora A; assay: immunoprecipitation of Aurora A from lysates of 293T cells transfected with HA-tagged TIFA, western blot
Procedure: After 48 h, cells were treated with or without 10 ng/mL TNF-α (R&D Systems) for 30 min, washed by PBS, and lysed with CHAPS lysis buffer (20 mM PIPES, 1 mM Na₃VO₄, 1 mM EGTA, 50 mM Tris-HCl, 150 mM NaCl, 50 mM NaF, 1% CHAPS, and 10% glycerol) supplemented with protease inhibitor cocktail (Roche), phosphatase inhibitor cocktail 3 (Sigma). Three vig of indicated antibody was pre-coated with 100 μL M-280 Dynabeads (lnvitrogen) overnight at 4° C. The 500 μg cell extracts were incubated with 15 μL antibody-coated Dynabeads at 4° C. overnight. The protein-bead complex was then washed with Tris-buffered saline Tween 20 (TBST) buffer and subjected to Western blot analysis.

[1] = molecular target: T2, endogenous TIFA (U937 cells); assay: anti-Myc immunoprecipitation from lysates of transduced U937 cells, western blot
Source text: AML lines were respectively infected with pseudotyped retroviruses carrying these constructs to generate stable cells. […] (FIG. 5C) Lysates from U937 cells stably expressing TIFA fragments shown in (FIG. 5B) were immunoprecipitated using anti-Myc immunobeads and analyzed by western blot.
We designed to fine-map the minimal effective region for molecular targeting of TIFA in AML cells through retroviral transduction (FIG. 5B).

Row | Binder | binding result (Aurora A) | binding result [1]
1 | HA-tagged TIFA (full-length TIFA wild-type) (other, Expressed in 293T cells from pCDNA3.1. 'full-length TIFA wild-type following a synthesized HA-tag' is read here as an N-terminal tag; also called HA-TIFA; not shown: synthesized HA-tag) MTSFEDADTEETVTCLQMTVYHPGQLQCGIFQSISFNREKLPSSEVVKFGRNSNICHYTFQDKQVSRVQFSLQLFKKFNSSVLSFEIKNMSKKTNLIVDSRELGYLNKMDLPYRCMVRFGEYQFLMEKEDGESLEFFETQFILSPRSLLQENNWPPHRPIPEYGTYSLCSSQSSSPTEMDENES | binds | 
2 | TIFA fragment F2F3 with two consecutive Myc-tags (Stably expressed in U937 cells by retroviral transduction (pLNCX); also called F2-F3 peptide fragment; DN fragment; not shown: two consecutive Myc-tags (2Myc)) VVKFGRNSNICHYTFQDKQVSRVQFSLQLFKKFNSSVLSFEIKNMSKKTNLIVDSRELGYLNKMDLPYRCMVRFGEYQFLMEKEDGESLEFFETQFILSPRSLLQENNWPPHRPIPEYGTYSLCSSQSSSPTEMDENES |  | binds
3 | TIFA fragment F1F2 with two consecutive Myc-tags (Stably expressed in U937 cells by retroviral transduction (pLNCX); also called F1-F2 peptide fragment; DN fragment; not shown: two consecutive Myc-tags (2Myc)) MTSFEDADTEETVTCLQMTVYHPGQLQCGIFQSISFNREKLPSSEVVKFGRNSNICHYTFQDKQVSRVQFSLQLFKKFNSSVLSFEIKNMSKKTNLIVDSREL |  | binds
